# From patent US6960429B2, “Inhibition of viral gene activities” (priority 1997, dated 2005)
# Tests used:
# [1] = target: bEBNA1 (derivative of EBNA1); type: biochemical, Epstein-Barr virus
# Method: (§1) Two DNAs used as probes in this study were generated by endonuclease digestion of cloned DNAs. That with two EBNA1-binding sites is the 131 bp, SalI to PstI fragment derived from p880 (30); and that with five GAL4-binding sites is the 109 bp, HinDIII to XbaI fragment derived from G5BCAT (31). DNA fragments were purified from agarose gels. They were quantified by making serial dilutions in the presence of ethidium bromide (0.5 μg/mL) and comparing their intensities, when exposed to ultraviolet light, to that of similar dilutions of a standard DNA. This method distinguishes less than two-fold differences in DNA concentrations. These DNAs were labeled with the Klenow fragment of DNA Polymerase 1 in the presence of dATP, dGTP, dTTP, and ^32P α-dCTP (Amersham), and precipitated three times to remove unincorporated label (32).
# The derivatives of EBNA1 (bEBNA1, NΔ360, NΔ389) and the GAL4 derivatives (GAL4(1-94), GAL4(1-94)&54-89, GAL4(1-94)&331-361, GAL4(1-94)&372-391) used in this study were all produced and purified as previously described (28). Briefly, bEBNA1 lacks amino acids 2 through 7 and all but fifteen amino acids of the gly-gly-ala repeats and was expressed in SF21 cells (23). […]
# Gel shift assays were done as previously described (28). […] The percentage of DNA linked is determined by dividing the amount of linked DNA by the total amount of DNA in the lane.
# [2] = target: T1, NΔ360 (derivative of EBNA1) (Epstein-Barr virus, UniProt P03211); type: biochemical
# T1 construct: NΔ360 and NΔ389 have a methionine followed by amino acids 361 and 390 to the carboxy-terminus, respectively; added initiator methionine (N); made in house; host or cells: E. coli
# Excerpt: as §1, with “They were quantified by making serial dilutions in the presence of ethidium bromide (0.5 μg/mL) and comparing their intensities, when exposed to ultraviolet light, to that of similar dilutions of a standard DNA.” left out
# The derivatives of EBNA1 (bEBNA1, NΔ360, NΔ389) and the GAL4 derivatives (GAL4(1-94), GAL4(1-94)&54-89, GAL4(1-94)&331-361, GAL4(1-94)&372-391) used in this study were all produced and purified as previously described (28). Briefly, bEBNA1 lacks amino acids 2 through 7 and all but fifteen amino acids of the gly-gly-ala repeats and was expressed in SF21 cells (23). NΔ360 and NΔ389 lack the first 360 and 389 amino acids, respectively, and were expressed in E. coli. GAL4(1-94) contains amino acids 1 to 94 of the yeast transactivator GAL4 plus eight carboxy-terminal amino acids coded by the poly-cloning region. The fusions designated GAL4(1-94)&#—# contain the indicated residues from EBNA1 cloned in frame into the poly-cloning region. All derivatives and fragments of EBNA1 were derived from the B95-8 viral strain (33, 15).
# A.A. 40-89 and A.A. 331-391 were generated by amplifying the fragment of EBNA1 encoding those amino acids with PCR primers containing SalI and XbaI sites at the 5′ ends. […] The sequence of both clones was verified using an ABI Prism automated sequencer (Applied BioSystems). Expression of the fusion proteins in BL21 bacteria containing a DE3 lysogen and carrying pLysS was done as previously described (28). […]
# Gel shift assays were done as previously described (28). […] The percentage of DNA linked is determined by dividing the amount of linked DNA by the total amount of DNA in the lane. […]
# T1 sequence (P03211 361-641, stated change not applied): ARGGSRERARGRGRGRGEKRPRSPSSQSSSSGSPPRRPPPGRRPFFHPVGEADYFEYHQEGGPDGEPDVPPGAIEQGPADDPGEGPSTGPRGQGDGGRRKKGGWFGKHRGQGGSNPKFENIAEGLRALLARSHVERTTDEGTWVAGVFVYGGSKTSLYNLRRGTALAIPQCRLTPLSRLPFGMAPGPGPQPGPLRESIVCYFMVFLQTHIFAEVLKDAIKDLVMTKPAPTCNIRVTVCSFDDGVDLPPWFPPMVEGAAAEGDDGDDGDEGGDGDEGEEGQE
molecule,measurement,setting,value
"Rnase A: control protein (protein, UniProt P61823 27-150, looked up) Ribonuclease pancreatic: KETAAAKFERQHMDSSTSAASSSNYCNQMMKSRNLTKDRCKPVNTFVHESLADVQAVCSQKNVACKNGQTNCYQSYSTMSITDCRETGSSKYPNCAYKTTQANKHIIVACEGNPYVPVHFDASV",Ki,"[1]; 6.5 nM dimers of bEBNA1, 20 fmols DNA with two EBNA1-binding sites, Ki = concentration of competitor which inhibits linking to 50%, read-out: Ki against bEBNA1",> 42 µM
same,Sensitivity of bEBNA1-mediated linking to competitor,"[1]; DNAs with two binding sites, range of concentrations tested",insensitive
same,Ki,"[2]; 6.5 nM dimers of NΔ360, 20 fmols DNA with two EBNA1-binding sites, Ki = concentration of competitor which inhibits linking to 50%, read-out: Ki against NΔ360",30 µM
same,IC50,"[2]; DNAs with two EBNA1-binding sites, read-out: Concentration inhibiting linking by NΔ360 to 50%",30 µM
same,Amount required to reduce linking by 50% relative to A.A. 331-391,[2]; linking by NΔ360,Approximately 1000 fold
